Where no end group is shown, it is not given here. [ ]: non-standard residue; d: D form. Ac3c = NC1(C(=O)O)CC1; Aib = CC(C)(N)C(=O)O
Experiments:
[1] = biological target: Human GLP-1 receptor (human, UniProt P43220 24-463); test: cell-based or functional assay
[2] = biological target: Human glucagon receptor (human, UniProt P47871 26-477); test: cell-based or functional assay

Chain of Human GLP-1 receptor (P43220 24-463): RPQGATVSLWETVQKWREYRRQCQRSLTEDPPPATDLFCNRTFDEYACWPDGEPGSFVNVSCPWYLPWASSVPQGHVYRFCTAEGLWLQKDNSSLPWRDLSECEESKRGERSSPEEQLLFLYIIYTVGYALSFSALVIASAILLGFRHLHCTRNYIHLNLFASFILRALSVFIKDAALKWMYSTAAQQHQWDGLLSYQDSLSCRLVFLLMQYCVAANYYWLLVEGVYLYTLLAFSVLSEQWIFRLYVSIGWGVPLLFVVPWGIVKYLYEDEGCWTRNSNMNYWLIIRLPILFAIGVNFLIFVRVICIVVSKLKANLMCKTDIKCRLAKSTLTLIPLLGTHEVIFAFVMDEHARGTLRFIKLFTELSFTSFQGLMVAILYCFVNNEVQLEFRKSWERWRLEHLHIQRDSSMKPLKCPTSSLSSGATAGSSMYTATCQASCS

| cAMP release, % activity with respect to control; test compound 1 nM [1] | cAMP release, % activity with respect to control; test compound 10 nM [1] | cAMP release, % activity with respect to control; test compound 100 nM [1] | cAMP release, % activity with respect to control; test compound 1 µM [1] | cAMP release, % activity with respect to control; test compound 10 µM [1] | cAMP production with saturated glucagon peptide; test compound 1 nM [2] | cAMP production with saturated glucagon peptide; test compound 10 nM [2] | cAMP production with saturated glucagon peptide; test compound 100 nM [2] | cAMP production with saturated glucagon peptide; test compound 10 µM [2] | cAMP production with saturated glucagon peptide; test compound '1 nM' [2] | Binder |
| --- | --- | --- | --- | --- | --- | --- | --- | --- | --- | --- |
| 38% | 77% | 85% | 94% | 97% | 18 pmol/ml/µg prt | 16 pmol/ml/µg prt | 12 pmol/ml/µg prt | 6 pmol/ml/µg prt | 8 pmol/ml/µg prt | HAQGTFTSD[Bip(OMe)][Bip(2Me)] (not fully specified (C-terminus); printed as HAQGTFTSD-Bip(OMe)-Bip(2Me)) [Seq. ID. No. 9: HAQGTFTSD-Bip(OMe)-Bip(2Me)] |
| 69% | 98% | 99% | 99% | 99% | 4 pmol/ml/µg prt | 2 pmol/ml/µg prt | 0 pmol/ml/µg prt | 0 pmol/ml/µg prt | 0 pmol/ml/µg prt | H[Aib]QGTFTSD[Bip(OMe)][Bip(2CF3)] [Seq. ID. No. 16: H-Aib-QGTFTSD-Bip(OMe)-Bip(2CF3)] |
| 99% | 99% | 99% | 99% | 99% | 5 pmol/ml/µg prt | 3 pmol/ml/µg prt | 1 pmol/ml/µg prt | 0 pmol/ml/µg prt | 0 pmol/ml/µg prt | HXQGTXTSDXX (not fully specified; ACP at 2; α-Me-2F-Phe at 6; Bip(OMe) at 10; Bip(2F) at 11) [Seq. ID. No. 35: H-(ACP)-QGT-(α-Me-2F-Phe)-TSD-Bip(OMe)-Bip(2F)] |
| 40% | 81% | 87% | 95% | 98% | 4 pmol/ml/µg prt | 2 pmol/ml/µg prt | 0 pmol/ml/µg prt | 0 pmol/ml/µg prt | 0 pmol/ml/µg prt | HSQGTFTSD[Bip(OMe)][Bip(2CF3)] (not fully specified (C-terminus); printed as HSQGTFTSD-Bip(OMe)-Bip(2CF3)) [Seq. ID. No. 8: HSQGTFTSD-Bip(OMe)-Bip(2CF3)] |
| 51% | 86% | 91% | 99% | 99% | 10 pmol/ml/µg prt | 8 pmol/ml/µg prt | 6 pmol/ml/µg prt | 0 pmol/ml/µg prt | 2 pmol/ml/µg prt | HAQGTFTSD[Bip(OMe)][Bip(2F)] [Seq. ID. No. 11: HAQGTFTSD-Bip(OMe)-Bip(2F)] |
| 99% | 99% | 99% | 99% | 99% | 0 pmol/ml/µg prt | 0 pmol/ml/µg prt | 0 pmol/ml/µg prt | 0 pmol/ml/µg prt | 0 pmol/ml/µg prt | HXQGTXTSDXX (not fully specified; ACP at 2; α-Me-2F-Phe at 6; Bip(OMe) at 10; Bip(Pyr) at 11) [Seq. ID. No. 34: H-(ACP)-QGT-(α-Me-2F-Phe)-TSD-Bip(OMe)-Bip(Pyr)] |
| 60% | 92% | 98% | 99% | 99% | 10 pmol/ml/µg prt | 8 pmol/ml/µg prt | 6 pmol/ml/µg prt | 1 pmol/ml/µg prt | 4 pmol/ml/µg prt | H[Aib]QGTFTSD[Bip(OMe)][Bip(2Me)] [Seq. ID. No. 13: H-Aib-QGTFTSD-Bip(OMe)-Bip(2Me)] |
| 62% | 94% | 99% | 99% | 99% | 9 pmol/ml/µg prt | 6 pmol/ml/µg prt | 5 pmol/ml/µg prt | 0 pmol/ml/µg prt | 3 pmol/ml/µg prt | H[Aib]QGTFTSD[Bip(OMe)][Bip(Pyr)] [Seq. ID. No. 14: H-Aib-QGTFTSD-Bip(OMe)-Bip(Pyr)] |
| 38% | 78% | 86% | 95% | 98% | 20 pmol/ml/µg prt | 18 pmol/ml/µg prt | 16 pmol/ml/µg prt | 12 pmol/ml/µg prt | 14 pmol/ml/µg prt | HSQGTFTSD[Bip(OMe)][Bip(2Me)]-NH2 [Seq. ID. No. 5: HSQGTFTSD-Bip(OMe)-Bip(2Me)] |
| 86% | 99% | 99% | 99% | 99% | 0 pmol/ml/µg prt | 0 pmol/ml/µg prt | 0 pmol/ml/µg prt | 0 pmol/ml/µg prt | 0 pmol/ml/µg prt | H[Ac3c]QGTFTSD[Bip(OMe)][Bip(Pyr)] [Seq. ID. No. 18: H-(ACP)-QGTFTSD-Bip(OMe)-Bip(Pyr)] |
| 45% | 84% | 90% | 99% | 99% | 6 pmol/ml/µg prt | 5 pmol/ml/µg prt | 2 pmol/ml/µg prt | 0 pmol/ml/µg prt | 0 pmol/ml/µg prt | HSQGTFTSD[Bip(OMe)][Bip(2F)] (not fully specified (C-terminus); printed as HSQGTFTSD-Bip(OMe)-Bip(2F)) [Seq. ID. No. 7: HSQGTFTSD-Bip(OMe)-Bip(2F)] |
| 78% | 99% | 99% | 99% | 99% | 2 pmol/ml/µg prt | 0 pmol/ml/µg prt | 0 pmol/ml/µg prt | 0 pmol/ml/µg prt | 0 pmol/ml/µg prt | H[Ac3c]QGTFTSD[Bip(OMe)][Bip(2Me)] [Seq. ID. No. 17: H-(ACP)-QGTFTSD-Bip(OMe)-Bip(2Me)] |
| 66% | 97% | 99% | 99% | 99% | 6 pmol/ml/µg prt | 5 pmol/ml/µg prt | 2 pmol/ml/µg prt | 0 pmol/ml/µg prt | 0 pmol/ml/µg prt | H[Aib]QGTFTSD[Bip(OMe)][Bip(2F)] [Seq. ID. No. 15: H-Aib-QGTFTSD-Bip(OMe)-Bip(2F)] |

From US20130225488A1 (CADILA HEALTHCARE, published 2013)
